B1: Caspase-9 (Homo sapiens), P55211 (parent)
chain: MDEADRRLLRRCRLRLVEELQVDQLWDALLSRELFRPHMIEDIQRAGSGSRRDQARQLIIDLETRGSQALPLFISCLEDTGQDMLASFLRTNRQAAKLSKPTLENLTPVVLRPEIRKPEVLRPETPRPVDIGSGGFGDVGALESLRGNADLAYILSMEPCGHCLIINNVNFCRESGLRTRTGSNIDCEKLRRRFSSLHFMVEVKGDLTAKKMVLALLELAQQDHGALDCCVVVILSHGCQASHLQFPGAVYGTDGCPVSVEKIVNIFNGTSCPSLGGKPKLFFIQACGGEQKDHGFEVASTSPEDESPGSNPEPDATPFQEGLRTFDQLDAISSLPTPSDIFVSYSTFPGFVSWRDPKSGSWYVETLDDIFEQWAHSEDLQSLLLRVANAVSVKGIYKQMPGCFNFLRKKLFFKTS

Variants of: B1
Conditions: with apaf_human APAF1, O14727
Sequence of apaf_human APAF1, O14727 (O14727 whole entry): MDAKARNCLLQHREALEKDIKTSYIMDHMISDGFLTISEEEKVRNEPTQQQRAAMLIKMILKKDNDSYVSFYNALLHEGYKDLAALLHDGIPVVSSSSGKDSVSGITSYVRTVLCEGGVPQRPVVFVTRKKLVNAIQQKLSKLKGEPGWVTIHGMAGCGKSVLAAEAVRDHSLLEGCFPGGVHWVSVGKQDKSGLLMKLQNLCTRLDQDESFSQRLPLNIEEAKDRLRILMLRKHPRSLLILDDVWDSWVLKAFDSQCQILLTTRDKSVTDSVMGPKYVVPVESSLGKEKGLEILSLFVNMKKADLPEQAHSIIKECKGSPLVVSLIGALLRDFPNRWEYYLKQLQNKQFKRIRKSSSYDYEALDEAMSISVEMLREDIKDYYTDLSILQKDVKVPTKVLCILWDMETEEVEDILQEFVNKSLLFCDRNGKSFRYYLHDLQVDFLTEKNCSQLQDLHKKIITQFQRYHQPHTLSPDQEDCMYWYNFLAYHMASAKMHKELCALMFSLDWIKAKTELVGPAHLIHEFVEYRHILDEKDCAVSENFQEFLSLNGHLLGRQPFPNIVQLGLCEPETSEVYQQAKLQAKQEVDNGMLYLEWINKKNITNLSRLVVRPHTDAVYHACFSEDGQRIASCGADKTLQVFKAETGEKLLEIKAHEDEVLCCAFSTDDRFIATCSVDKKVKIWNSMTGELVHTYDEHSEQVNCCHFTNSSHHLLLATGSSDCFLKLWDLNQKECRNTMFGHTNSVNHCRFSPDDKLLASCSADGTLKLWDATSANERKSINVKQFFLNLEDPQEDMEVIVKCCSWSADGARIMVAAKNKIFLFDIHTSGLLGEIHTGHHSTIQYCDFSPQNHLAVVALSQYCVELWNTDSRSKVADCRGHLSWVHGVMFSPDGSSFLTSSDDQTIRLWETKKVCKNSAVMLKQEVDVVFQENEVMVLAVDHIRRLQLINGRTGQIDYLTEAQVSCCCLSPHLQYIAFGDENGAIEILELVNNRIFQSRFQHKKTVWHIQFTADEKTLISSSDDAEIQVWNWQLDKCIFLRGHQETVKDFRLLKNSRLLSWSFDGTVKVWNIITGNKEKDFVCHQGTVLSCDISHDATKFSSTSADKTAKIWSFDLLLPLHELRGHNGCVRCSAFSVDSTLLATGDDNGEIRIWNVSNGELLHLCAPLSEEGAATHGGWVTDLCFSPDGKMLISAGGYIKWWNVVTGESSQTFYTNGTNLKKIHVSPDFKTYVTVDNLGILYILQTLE

effect of a mutation on the interaction | Variant
disrupting interaction | R56A

— IntAct's records for PubMed 19494828
